Reference: patent US12287344B2, “Fret-based method to measure seeding activity of misfolded protein species in biological samples” (MAX-DELBRÜCK-CENTRUM FÜR MOLEKULARE MEDIZIN IN DER …, priority 2018, dated 2025)

Test system: Ex1Q48-CyPet/-YPet
Assay: FRASE assay: effect of added preformed fibrils/seeds on Ex1Q48-CyPet/-YPet polymerization
Format: biochemical, human
Details: sonicated Ex1Q48 seeds (~1,250 kDa); sensor 1:1 mixture, 1.2 μM
Description: (B) Effects of small, preformed Ex1Q48 seeds (1250 kDa) on Ex1Q48-CyPet and -YPet (1:1 mixture, total conc. 1.2 μM) co-aggregation. Data are mean±SEM (n=5).
(D) Effects of non-polyQ fibrils on Ex1Q48-CyPet and -YPet (1:1 mixture, total conc. 1.2 μM) co-aggregation. Data are mean±SD of triplicates.
Spontaneous Ex1Q48 aggregation was initiated by addition of 14 U PreScission protease (GE Healthcare) per nmol purified GST-Ex1Q48 fusion protein (2 μM). The aggregation reaction was performed in 50 mM Tris-HCl pH 7.4, 150 mM NaCl, 1 mM EDTA and 1 mM DTT at 25° C. and constant agitation (450 rpm) for 24 h. […]
Purified GST-Ex1Q48-CyPet and GST-Ex1Q48-YPet were diluted in aggregation buffer at an equimolar ratio to a final concentration of 1.2 μM (0.6 μM each) with 14 U PSP per nmol sensor proteins if not stated otherwise. […] For quantification of seeding-competent HTT species in tissue samples, the sensor-protein mixture was supplemented with up to 10% (v/v) tissue homogenate. Fluorescence signals were measured every 20 min following a 5 s pulse of vertical shaking with a Tecan M200 fluorescence plate reader at 25° C. for up to 48 h. CyPet donor fluorescence was measured at excitation (Ex): 435 nm/emission (Em): 475 nm; YPet acceptor fluorescence at Ex: 500 nm/Em: 530 nm; the FRET channel (DA) was recorded at Ex: 435 nm/Em: 530 nm. […]

B1: Ex1Q48 seeds: preformed recombinant mutant huntingtin exon 1 (48 glutamines) aggregates, sonicated, ~1,250 kDa (protein)
chain: MATLEKLMKAFESLKSFQQQQQQQQQQQQQQQQQQQQQQQQQQQQQQQQQQQQQQQQQQQQQQQQPPPPPPPPPPPQLPQPPPQAQPLLPQLQPPPPPPPPPPGPAAAEEPLHRP
- threshold for detecting seeds in FRASE assay: ~60 fM
